Literature values in PMC3277744.

Target: Bcl-XL (Homo sapiens) (UniProt Q07817)
Sequence (Q07817 whole entry): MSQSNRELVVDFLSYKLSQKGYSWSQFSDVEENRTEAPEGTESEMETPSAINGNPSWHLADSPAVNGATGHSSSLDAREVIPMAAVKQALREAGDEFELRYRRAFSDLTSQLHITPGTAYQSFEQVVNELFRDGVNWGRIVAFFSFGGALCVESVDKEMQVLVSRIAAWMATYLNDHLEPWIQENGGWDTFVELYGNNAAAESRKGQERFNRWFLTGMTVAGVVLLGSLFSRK

- Kd: 0.164 µM
Substance: p53 (from UniProt P04637)
